US20200216522A1 (DENALI THERAPEUTICS, published 2020)

Experiments:
Assay in all cases: peptide array
[1] = target: T1, Peptide_044 (human)
T1 peptide: PTPPTREPKKVAVVR
Outline: (§1)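 Overlapping 15-mer peptides (5-aa offset) spanning human 2N4R Tau spotted in triplicate on slides; antibodies bound 2 h at room temperature in 3% BSA-TBST (chimeric IgG 5 μg/mL; mouse IgG 30 μg/mL). Detection 1 h with fluorescent anti-human (568 nm) or anti-mouse (647 nm) secondary; fluorescence imaging aligned to array map.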

[2] = target: T2, Peptide_048 (human)
T2 peptide: PSSAKSRLQTAPVPM
Outline: as §1

[3] = target: T3, Peptide_027 (human)
T3 peptide: SKDGTGSDDKKAKGA
Outline: as §1

[4] = target: T4, Peptide_065 (human)
T4 peptide: KCGSLGNIHHKPGGG
Outline: as §1

[5] = target: T5, Peptide_086 (human)
T5 peptide: ATLADEVSASLAKQG
Outline: as §1

[6] = target: T6, Peptide_082 (human)
T6 peptide: RHLSNVSSTGSIDMV
Outline: as §1

[7] = target: T7, Peptide_024 (human)
T7 peptide: DEAAGHVTQARMVSK
Outline: as §1

[8] = target: T8, Peptide_058 (human)
T8 peptide: NVQSKCGSKDNIKHV
Outline: as §1

[9] = target: T9, Peptide_087 (human)
T9 peptide: TLADEVSASLAKQGL
Outline: as §1

[10] = target: T10, Peptide_011 (human)
T10 peptide: PTEDGSEEPGSETSD
Outline: as §1

[11] = target: T11, Peptide_046 (human)
T11 peptide: VAVVRTPPKSPSSAK
Outline: as §1

[12] = target: T12, Peptide_055 (human)
T12 peptide: GGGKVQIINKKLDLS
Outline: as §1

[13] = target: T13, Peptide_043 (human)
T13 peptide: RTPSLPTPPTREPKK
Outline: as §1

[14] = target: T14, Peptide_061 (human)
T14 peptide: PGGGSVQIVYKPVDL
Outline: as §1

[15] = target: T15, Peptide_063 (human)
T15 peptide: KPVDLSKVTSKCGSL
Outline: as §1

[16] = target: T16, Peptide_041 (human)
T16 peptide: GSPGTPGSRSRTPSL
Outline: as §1

[17] = target: T17, Peptide_080 (human)
T17 peptide: SPVVSGDTSPRHLSN
Outline: as §1

[18] = target: T18, Peptide_066 (human)
T18 peptide: GNIHHKPGGGQVEVK
Outline: as §1

[19] = target: T19, Peptide_012 (human)
T19 peptide: SEEPGSETSDAKSTP
Outline: as §1

[20] = target: T20, Peptide_002 (human)
T20 peptide: QEFEVMEDHAGTYGL
Outline: as §1

[21] = target: T21, Peptide_009 (human)
T21 peptide: AGLKESPLQTPTEDG
Outline: as §1

[22] = target: T22, Peptide_025 (human)
T22 peptide: HVTQARMVSKSKDGT
Outline: as §1

[23] = target: T23, Peptide_003 (human)
T23 peptide: MEDHAGTYGLGDRKD
Outline: as §1

[24] = target: T24, Peptide_042 (human)
T24 peptide: PGSRSRTPSLPTPPT
Outline: as §1

[25] = target: T25, Peptide_037 (human)
T25 peptide: TPPSSGEPPKSGDRS
Outline: as §1

[26] = target: T26, Peptide_071 (human)
T26 peptide: QSKIGSLDNITHVPG
Outline: as §1

[27] = target: T27, Peptide_054 (human)
T27 peptide: LKHQPGGGKVQIINK
Outline: as §1

[28] = target: T28, Peptide_040 (human)
T28 peptide: GYSSPGSPGTPGSRS
Outline: as §1

[29] = target: T29, Peptide_006 (human)
T29 peptide: QGGYTMHQDQEGDTD
Outline: as §1

[30] = target: T30, Peptide_036 (human)
T30 peptide: PPAPKTPPSSGEPPK
Outline: as §1

[31] = target: T31, Peptide_060 (human)
T31 peptide: NIKHVPGGGSVQIVY
Outline: as §1

[32] = target: T32, process-control peptide
T32 construct: array control, not a Tau peptide
T32 peptide: GGSGGGSDYKDDDDK
Outline: as §1

[33] = target: T33, Peptide_014 (human)
T33 peptide: AKSTPTAEDVTAPLV
Outline: as §1

[34] = target: T34, Peptide_001 (human)
T34 peptide: MAEPRQEFEVMEDHA
Outline: as §1

[35] = target: T35, Peptide_020 (human)
T35 peptide: EIPEGTTAEEAGIGD
Outline: as §1

B1: chimeric IgG clone 1D10 (antibody, V domains shown)
VH: EVQLQQSGAELVRPGASVKLSCTASGFNIKDSLMHWMKQRPEQGLEWIGWIDPEDGETKYAPKFQDKATLTADTSSNAAYLQLSSLTSEDTAIYYCVRGDWDGGYWGQGTTLTVSS
VL: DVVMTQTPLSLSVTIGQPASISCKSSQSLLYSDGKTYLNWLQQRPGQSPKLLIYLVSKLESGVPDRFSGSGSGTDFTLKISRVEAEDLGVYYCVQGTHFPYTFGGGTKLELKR
notes: mouse-human chimeric IgG from HEK293
B1: no binding (tested: 5 ug/mL) [1]; no binding (tested: 5 ug/mL) [2]; no binding (tested: 5 ug/mL) [3]. B1: no binding (tested: 5 ug/mL) [4]; no binding (tested: 5 ug/mL) [5]; no binding (tested: 5 ug/mL) [6]. B1: no binding (tested: 5 ug/mL) [7]; no binding (tested: 5 ug/mL) [8]; no binding (tested: 5 ug/mL) [9]. B1: no binding (tested: 5 ug/mL) [10]; no binding (tested: 5 ug/mL) [11]; no binding (tested: 5 ug/mL) [12]. B1: no binding (tested: 5 ug/mL) [13]; no binding (tested: 5 ug/mL) [14]; no binding (tested: 5 ug/mL) [15]. B1: no binding (tested: 5 ug/mL) [16]; no binding (tested: 5 ug/mL) [17]; no binding (tested: 5 ug/mL) [18]. B1: no binding (tested: 5 ug/mL) [19]; no binding (tested: 5 ug/mL) [20]; no binding (tested: 5 ug/mL) [21]. B1: no binding (tested: 5 ug/mL) [22]; no binding (tested: 5 ug/mL) [23]; no binding (tested: 5 ug/mL) [24]. B1: no binding (tested: 5 ug/mL) [25]; no binding (tested: 5 ug/mL) [26]; no binding (tested: 5 ug/mL) [27]. B1: no binding (tested: 5 ug/mL) [28]; no binding (tested: 5 ug/mL) [29]; no binding (tested: 5 ug/mL) [30]. B1: no binding (tested: 5 ug/mL) [31]; no binding (tested: 5 ug/mL) [32]; no binding (tested: 5 ug/mL) [33]. B1: no binding (tested: 5 ug/mL) [34]; no binding (tested: 5 ug/mL) [35].

B2: murine anti-Tau hybridoma antibody 17G2.A1 (antibody, V domains shown)
VH: QVQLQQPGAELVGPGSSVKLSCKASGYTFINYWIDWMKQSPGQGLEWIGNIYPSDSESHYNQKFTDKATLTVDISSSTAYLQLSSLTSEDSAVYYCALYSKGYWGQGTSVTVSS
VL: DVLMTQTPLSLPVTLGDQASISCRSSQNIVHTNGNTYLEWYLQKPGQSPKLLIYKLSSRFSGVPDRFSGSGSGTDFTLKISRVEAEDLGVYYCFQGSHLPFTFGGGTKLEIKR
notes: mouse IgG from hybridoma; also called anti-Tau 17G2.A1
B2: no binding (tested: 30 ug/mL) [1]; no binding (tested: 30 ug/mL) [2]; no binding (tested: 30 ug/mL) [3]. B2: no binding (tested: 30 ug/mL) [4]; no binding (tested: 30 ug/mL) [5]; no binding (tested: 30 ug/mL) [6]. B2: no binding (tested: 30 ug/mL) [7]; no binding (tested: 30 ug/mL) [8]; no binding (tested: 30 ug/mL) [9]. B2: no binding (tested: 30 ug/mL) [10]; no binding (tested: 30 ug/mL) [11]; no binding (tested: 30 ug/mL) [12]. B2: no binding (tested: 30 ug/mL) [13]; no binding (tested: 30 ug/mL) [14]; no binding (tested: 30 ug/mL) [15]. B2: no binding (tested: 30 ug/mL) [16]; no binding (tested: 30 ug/mL) [17]; no binding (tested: 30 ug/mL) [18]. B2: no binding (tested: 30 ug/mL) [19]; no binding (tested: 30 ug/mL) [20]; no binding (tested: 30 ug/mL) [21]. B2: no binding (tested: 30 ug/mL) [22]; no binding (tested: 30 ug/mL) [23]; no binding (tested: 30 ug/mL) [24]. B2: no binding (tested: 30 ug/mL) [25]; no binding (tested: 30 ug/mL) [26]; no binding (tested: 30 ug/mL) [27]. B2: no binding (tested: 30 ug/mL) [28]; no binding (tested: 30 ug/mL) [29]; no binding (tested: 30 ug/mL) [30]. B2: no binding (tested: 30 ug/mL) [31]; no binding (tested: 30 ug/mL) [32]; no binding (tested: 30 ug/mL) [33]. B2: no binding (tested: 30 ug/mL) [34]; no binding (tested: 30 ug/mL) [35].
